According to the supplement of paper PMC10567573:

B1: TRIM55 (parent)
chain: YKSFSKEQQTMDNLEKQLICPICL

Variants of: B1
Assay: protein stability index of a GFP-peptide fusion (GPS, HEK-293T) (PSI 1-6); higher = more stable
Conditions: c terminus: a fixed tail appended
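Also: lentivirally expressed fusions sorted by FACS into six bins by GFP to DsRed ratio, PSI derived from sequencing read proportions per bin multiplied by bin number.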

Row | Variant | protein stability index
1 | YKSFSKENQTMDNLEKQLICPICL [Q8N] | 2.18
2 | YKSFSKEPQTMDNLEKQLICPICL [Q8P] | 2
3 | YKSFSKERQTMDNLEKQLICPICL [Q8R] | 1.72
4 | YKSFSKESQTMDNLEKQLICPICL [Q8S] | 2.29
5 | YKSFSKETQTMDNLEKQLICPICL [Q8T] | 2.17
6 | YKSFSKEVQTMDNLEKQLICPICL [Q8V] | 2.09
7 | YKSFSKEWQTMDNLEKQLICPICL [Q8W] | 1.66
8 | YKSFSKEYQTMDNLEKQLICPICL [Q8Y] | 2
9 | YKSFSKEQATMDNLEKQLICPICL [Q9A] | 2.25
10 | YKSFSKEQCTMDNLEKQLICPICL [Q9C] | 2.15
11 | YKSFSKEQDTMDNLEKQLICPICL [Q9D] | 2.8
12 | YKSFSKEQETMDNLEKQLICPICL [Q9E] | 2.08
13 | YKSFSKEQFTMDNLEKQLICPICL [Q9F] | 1.79
14 | YKSFSKEQGTMDNLEKQLICPICL [Q9G] | 2.39
15 | YKSFSKEQHTMDNLEKQLICPICL [Q9H] | 1.98
16 | YKSFSKEQITMDNLEKQLICPICL [Q9I] | 1.79
17 | YKSFSKEQKTMDNLEKQLICPICL [Q9K] | 2.15
18 | YKSFSKEQLTMDNLEKQLICPICL [Q9L] | 1.87
19 | YKSFSKEQMTMDNLEKQLICPICL [Q9M] | 2.17
20 | YKSFSKEQNTMDNLEKQLICPICL [Q9N] | 2.22
21 | YKSFSKEQPTMDNLEKQLICPICL [Q9P] | 2.16
22 | YKSFSKEQRTMDNLEKQLICPICL [Q9R] | 2.5
23 | YKSFSKEQSTMDNLEKQLICPICL [Q9S] | 1.75
24 | YKSFSKEQTTMDNLEKQLICPICL [Q9T] | 1.57

Row | Variant | protein stability index
25 | YKSFSKEQVTMDNLEKQLICPICL [Q9V] | 1.76
26 | YKSFSKEQWTMDNLEKQLICPICL [Q9W] | 1.67
27 | YKSFSKEQYTMDNLEKQLICPICL [Q9Y] | 2.7
28 | YKSFSKEQQAMDNLEKQLICPICL [T10A] | 1.74
29 | YKSFSKEQQCMDNLEKQLICPICL [T10C] | 2.82
30 | YKSFSKEQQDMDNLEKQLICPICL [T10D] | 2.08
31 | YKSFSKEQQEMDNLEKQLICPICL [T10E] | 2.33
32 | YKSFSKEQQFMDNLEKQLICPICL [T10F] | 1.29
33 | YKSFSKEQQGMDNLEKQLICPICL [T10G] | 2.27
34 | YKSFSKEQQHMDNLEKQLICPICL [T10H] | 2.03
35 | YKSFSKEQQIMDNLEKQLICPICL [T10I] | 1.65
36 | YKSFSKEQQKMDNLEKQLICPICL [T10K] | 2.54
37 | YKSFSKEQQLMDNLEKQLICPICL [T10L] | 2.18
38 | YKSFSKEQQMMDNLEKQLICPICL [T10M] | 1.9
39 | YKSFSKEQQNMDNLEKQLICPICL [T10N] | 2.26
40 | YKSFSKEQQPMDNLEKQLICPICL [T10P] | 2.53
41 | YKSFSKEQQQMDNLEKQLICPICL [T10Q] | 2.31
42 | YKSFSKEQQRMDNLEKQLICPICL [T10R] | 2.03
43 | YKSFSKEQQSMDNLEKQLICPICL [T10S] | 2.46
44 | YKSFSKEQQVMDNLEKQLICPICL [T10V] | 2.04
45 | YKSFSKEQQWMDNLEKQLICPICL [T10W] | 1.77
46 | YKSFSKEQQYMDNLEKQLICPICL [T10Y] | 1.92
47 | YKSFSKEQQTADNLEKQLICPICL [M11A] | 2.74
48 | YKSFSKEQQTCDNLEKQLICPICL [M11C] | 2.47

Row | Variant | protein stability index
49 | YKSFSKEQQTDDNLEKQLICPICL [M11D] | 2.68
50 | YKSFSKEQQTEDNLEKQLICPICL [M11E] | 2.69
51 | YKSFSKEQQTFDNLEKQLICPICL [M11F] | 2.24
52 | YKSFSKEQQTGDNLEKQLICPICL [M11G] | 2.22
53 | YKSFSKEQQTHDNLEKQLICPICL [M11H] | 1.82
54 | YKSFSKEQQTIDNLEKQLICPICL [M11I] | 1.83
55 | YKSFSKEQQTKDNLEKQLICPICL [M11K] | 2.54
56 | YKSFSKEQQTLDNLEKQLICPICL [M11L] | 2.3
57 | YKSFSKEQQTNDNLEKQLICPICL [M11N] | 3.68
58 | YKSFSKEQQTPDNLEKQLICPICL [M11P] | 2.66
59 | YKSFSKEQQTQDNLEKQLICPICL [M11Q] | 2.69
60 | YKSFSKEQQTRDNLEKQLICPICL [M11R] | 2.77
61 | YKSFSKEQQTSDNLEKQLICPICL [M11S] | 2.29
62 | YKSFSKEQQTTDNLEKQLICPICL [M11T] | 2.12
63 | YKSFSKEQQTVDNLEKQLICPICL [M11V] | 2.68
64 | YKSFSKEQQTWDNLEKQLICPICL [M11W] | 1.55
65 | YKSFSKEQQTYDNLEKQLICPICL [M11Y] | 2.1
66 | YKSFSKEQQTMANLEKQLICPICL [D12A] | 2.04
67 | YKSFSKEQQTMCNLEKQLICPICL [D12C] | 2.17
68 | YKSFSKEQQTMENLEKQLICPICL [D12E] | 2.59
69 | YKSFSKEQQTMFNLEKQLICPICL [D12F] | 2.68
70 | YKSFSKEQQTMGNLEKQLICPICL [D12G] | 2.56
71 | YKSFSKEQQTMHNLEKQLICPICL [D12H] | 1.93
72 | YKSFSKEQQTMINLEKQLICPICL [D12I] | 1.93

Row | Variant | protein stability index
73 | YKSFSKEQQTMKNLEKQLICPICL [D12K] | 2.98
74 | YKSFSKEQQTMLNLEKQLICPICL [D12L] | 2.14
75 | YKSFSKEQQTMMNLEKQLICPICL [D12M] | 2.26
76 | YKSFSKEQQTMNNLEKQLICPICL [D12N] | 2.37
77 | YKSFSKEQQTMPNLEKQLICPICL [D12P] | 2.43
78 | YKSFSKEQQTMQNLEKQLICPICL [D12Q] | 2.1
79 | YKSFSKEQQTMRNLEKQLICPICL [D12R] | 1.93
80 | YKSFSKEQQTMSNLEKQLICPICL [D12S] | 1.93
81 | YKSFSKEQQTMTNLEKQLICPICL [D12T] | 2.42
82 | YKSFSKEQQTMVNLEKQLICPICL [D12V] | 1.89
83 | YKSFSKEQQTMWNLEKQLICPICL [D12W] | 2.11
84 | YKSFSKEQQTMYNLEKQLICPICL [D12Y] | 2.57
85 | YKSFSKEQQTMDALEKQLICPICL [N13A] | 1.57
86 | YKSFSKEQQTMDCLEKQLICPICL [N13C] | 2.02
87 | YKSFSKEQQTMDDLEKQLICPICL [N13D] | 2.77
88 | YKSFSKEQQTMDELEKQLICPICL [N13E] | 1.87
89 | YKSFSKEQQTMDFLEKQLICPICL [N13F] | 2.34
90 | YKSFSKEQQTMDGLEKQLICPICL [N13G] | 2.35
91 | YKSFSKEQQTMDHLEKQLICPICL [N13H] | 1.95
92 | YKSFSKEQQTMDILEKQLICPICL [N13I] | 1.77
93 | YKSFSKEQQTMDKLEKQLICPICL [N13K] | 2.09
94 | YKSFSKEQQTMDLLEKQLICPICL [N13L] | 2.82
